{"source": "paper PMC11683240", "key": {"[1]": {"molecular_target": "Bordetella pertussis toxin (PT) holotoxin (Bordetella pertussis) (UniProt P04977)", "test": "FACS", "settings": "natural protein"}, "[2]": {"molecular_target": "Bordetella pertussis toxin (PT) holotoxin (Bordetella pertussis) (UniProt P04977)", "test": "FACS", "settings": "natural protein", "remark": "listed apart in the source"}}, "data": [{"substance": "α1-antitrypsin (Prolastin, plasma-derived) (from UniProt P01009 25-418)", "values": [{"measurement": "IC50", "setting": "[1]", "result": 1720, "unit": "nM"}, {"measurement": "IC50", "setting": "[2]", "result": 796, "unit": "nM"}]}]}
